Experimental data taken from US10538802B2, “Polypeptide substrate for the detection of von Williebrand factor cleaving protease ADAMTS13” (IMMUCOR GTI DIAGNOSTICS, INC., priority 2011, dated 2020).

Molecular target: T1, ADAMTS13 (Homo sapiens, UniProt Q76LX8)
T1 construct: tissue Gen-Probe GTI Diagnostics (ATS-13 kit calibrators, controls and proficiency samples); George King Biomedical Inc. (FACT, A-FACT, B-FACT plasmas) ATS-13; host or cells: plasma
T1 sequence (Q76LX8 75-1427): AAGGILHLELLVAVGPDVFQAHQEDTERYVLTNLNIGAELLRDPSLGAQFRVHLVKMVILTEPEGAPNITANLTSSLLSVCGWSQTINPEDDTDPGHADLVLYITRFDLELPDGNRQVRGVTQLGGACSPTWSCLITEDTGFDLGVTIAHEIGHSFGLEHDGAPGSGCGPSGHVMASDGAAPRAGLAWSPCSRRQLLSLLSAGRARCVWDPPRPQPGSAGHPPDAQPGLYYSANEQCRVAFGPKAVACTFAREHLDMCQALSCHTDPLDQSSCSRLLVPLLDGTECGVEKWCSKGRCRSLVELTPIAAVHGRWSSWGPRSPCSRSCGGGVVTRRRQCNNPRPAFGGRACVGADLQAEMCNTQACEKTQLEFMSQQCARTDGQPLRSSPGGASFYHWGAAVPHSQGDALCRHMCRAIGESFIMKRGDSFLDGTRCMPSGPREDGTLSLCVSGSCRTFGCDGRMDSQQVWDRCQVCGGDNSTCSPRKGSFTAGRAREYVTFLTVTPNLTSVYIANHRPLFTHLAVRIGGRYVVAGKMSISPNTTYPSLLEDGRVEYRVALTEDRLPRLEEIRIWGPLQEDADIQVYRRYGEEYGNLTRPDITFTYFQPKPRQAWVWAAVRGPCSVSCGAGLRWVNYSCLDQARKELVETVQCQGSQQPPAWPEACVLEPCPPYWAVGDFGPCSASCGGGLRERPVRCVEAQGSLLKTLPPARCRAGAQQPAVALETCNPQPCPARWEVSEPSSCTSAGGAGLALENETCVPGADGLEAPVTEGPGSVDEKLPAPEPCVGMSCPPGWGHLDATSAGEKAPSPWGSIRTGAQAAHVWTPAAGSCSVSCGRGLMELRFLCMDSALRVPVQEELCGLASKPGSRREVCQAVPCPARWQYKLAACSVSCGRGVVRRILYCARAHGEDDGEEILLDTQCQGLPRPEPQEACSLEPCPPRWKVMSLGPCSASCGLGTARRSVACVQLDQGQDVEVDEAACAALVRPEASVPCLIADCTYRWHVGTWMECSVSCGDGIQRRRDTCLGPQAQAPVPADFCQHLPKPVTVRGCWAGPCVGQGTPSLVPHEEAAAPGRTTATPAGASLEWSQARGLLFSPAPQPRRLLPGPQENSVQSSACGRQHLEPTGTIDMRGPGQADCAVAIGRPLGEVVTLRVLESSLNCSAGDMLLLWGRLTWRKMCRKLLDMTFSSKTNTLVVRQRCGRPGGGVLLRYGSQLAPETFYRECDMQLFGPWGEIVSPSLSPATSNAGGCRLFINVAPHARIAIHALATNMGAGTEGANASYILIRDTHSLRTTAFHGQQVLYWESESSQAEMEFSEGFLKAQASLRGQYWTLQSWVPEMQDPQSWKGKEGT
Experiment: ADAMTS13 activity assay with fluorogenic (FRET) polypeptide substrate and diluted plasma samples
Assay type: biochemical
Method: The procedure in this example was performed substantially as described in Kokame, K., Y. Nobe, Y. Kokubo, A. Okayama, and T. Miyata. 2005. FRETS-VWF73, a first fluorogenic substrate for ADAMTS13 assay. Br. J. Haematol. 129:93-100, but using SEQ ID NO: 1 in place of the 73 amino acid substrate described therein. The FRETS-VWF73 substrate solution was dissolved in 25% dimethyl sulphoxide/water to prepare the 100 microM stock solution. The GTI FRET4 SEQ ID NO: 1 was dissolved in 100% DMSO. Both substrates were diluted to equal concentrations using ATS-13 substrate buffer (Gen-Probe GT1 Diagnostics, Inc., U.S.A., Cat#ATS-13).
Plasma samples were diluted according to the ATS-13 Direction Insert using ATS-13 specimen diluent (Gen-Probe GTI Diagnostics, Inc., U.S.A., Cat# ATS-13). The diluted plasma samples were mixed with the diluted substrate and the fluorescence was read at 0, 5, 10, 15, 20, 30, 45 minutes using a Biotek FLX800 at the appropriate excitation and emission wavelengths for each substrate.
The fluorophore-quencher pair in the SEQ ID NO: 1 polypeptide substrate is FAM-5/TQ 2^Tm (Ex 485±20; Em 528±20; AAT Bioquest, Inc. Sunnyvale, Calif. U.S.A.). The fluorophore and quencher pair of FRETS-VWF73 (Nma/Dnp) described in Kokame has been substituted with FAM-5 and TQ_2 respectively in GTI_FRET4 SEQ ID NO: 1. Furthermore, in the SEQ ID NO: 1 polypeptide the position of the fluorophore (FAM-5) and quencher (TQ_2) has been swapped relative to the position of the fluorophore and quencher of the FRETS-VWF73 construct. Therefore, for GTI_FRET4 SEQ ID NO: 1, attachment of the fluorophore (FAM-5) occurs by substituting asparagine with cystine at position 15. The quencher (TQ_2) was attached by substituting glutamine with lysine at position 4 (FIG. 2 and Table 4).
For this experiment, substrate concentration and fluorescence reader settings determined on the previous experiment are used. The specimens tested (listed in Table 3), include a panel of proficiency samples prepared for use with ATS-13 (Gen-Probe GTI Diagnostics, Inc., U.S.A., Cat# ATS-13) which included samples with normal or deficient ADAMTS13 activity levels. In addition, six Factor Assay ConTrol plasma were used (2 FACT, 2 A-FACT and 2 B-FACT, from George King Biomedical Inc., Kansas, USA). The assays for the SEQ ID NO: 1 substrate and for the prior art FRETS-VWF73 assay were performed generally as according to the procedure described in Example 1. Substrate is prepared according to the conditions used for initial testing of the substrate, which prepared the molar amount of SEQ ID NO: 1 polypeptide substrate used in the assay to be equivalent to the molar amount of FRETS-VWF73 used in the prior art. The […] assays were read at 0, 5, 10, 15, 20, 30, 45 minutes.
Testing of substrate for cleavability by ADAMTS13 is determined as is generally described in Example 1. […]

## DREKAPNLVYMVTGCPASDEIKRLPGDIQVVPIEVIGWPNAPILIQDEETLPREAPDLVLQR [GTI_FRET4]
Sample Positive Control High, incubation 60 Minutes
  % Normal ADAMTS13 Values Calculated Using GTI_FRET4 Substrate: 51 % Normal
Sample Positive Control High, incubation 75 Minutes
  % Normal ADAMTS13 Values Calculated Using GTI_FRET4 Substrate: 54 % Normal
Sample Positive Control High, incubation 90 Minutes
  % Normal ADAMTS13 Values Calculated Using GTI_FRET4 Substrate: 55 % Normal
Sample Positive Control Low, 15 min
  Increase in Fluorescence Values (X minute - 0 minute Reading): 2,182 RFU
Sample Positive Control Low, 30 min
  Increase in Fluorescence Values (X minute - 0 minute Reading): 3,902 RFU
Sample Positive Control Low, 45 min
  Increase in Fluorescence Values (X minute - 0 minute Reading): 5,511 RFU
Sample Positive Control Low, 60 min
  Increase in Fluorescence Values (X minute - 0 minute Reading): 7,169 RFU
Sample Positive Control Low, 75 min
  Increase in Fluorescence Values (X minute - 0 minute Reading): 8,789 RFU
Sample Positive Control Low, 90 min
  Increase in Fluorescence Values (X minute - 0 minute Reading): 10,370 RFU
Sample Positive Control Low, incubation 15 Minutes
  % Normal ADAMTS13 Values Calculated Using GTI_FRET4 Substrate: 10 % Normal
Sample Positive Control Low, incubation 30 Minutes
  % Normal ADAMTS13 Values Calculated Using GTI_FRET4 Substrate: 10 % Normal
Sample Positive Control Low, incubation 45 Minutes
  % Normal ADAMTS13 Values Calculated Using GTI_FRET4 Substrate: 10 % Normal
Sample Positive Control Low, incubation 60 Minutes
  % Normal ADAMTS13 Values Calculated Using GTI_FRET4 Substrate: 10 % Normal
Sample Positive Control Low, incubation 75 Minutes
  % Normal ADAMTS13 Values Calculated Using GTI_FRET4 Substrate: 10 % Normal
Sample Positive Control Low, incubation 90 Minutes
  % Normal ADAMTS13 Values Calculated Using GTI_FRET4 Substrate: 9 % Normal
Sample UAMS041609, 15 min
  Increase in Fluorescence Values (X minute - 0 minute Reading): 3,876 RFU
Sample UAMS041609, 30 min
  Increase in Fluorescence Values (X minute - 0 minute Reading): 7,931 RFU
Sample UAMS041609, 45 min
  Increase in Fluorescence Values (X minute - 0 minute Reading): 11,692 RFU
Sample UAMS041609, 60 min
  Increase in Fluorescence Values (X minute - 0 minute Reading): 15,886 RFU
Sample UAMS041609, 75 min
  Increase in Fluorescence Values (X minute - 0 minute Reading): 19,867 RFU
Sample UAMS041609, 90 min
  Increase in Fluorescence Values (X minute - 0 minute Reading): 24,709 RFU
Sample UAMS041609, incubation 15 Minutes
  % Normal ADAMTS13 Values Calculated Using GTI_FRET4 Substrate: 19 % Normal
Sample UAMS041609, incubation 30 Minutes
  % Normal ADAMTS13 Values Calculated Using GTI_FRET4 Substrate: 22 % Normal
Sample UAMS041609, incubation 45 Minutes
  % Normal ADAMTS13 Values Calculated Using GTI_FRET4 Substrate: 23 % Normal
Sample UAMS041609, incubation 60 Minutes
  % Normal ADAMTS13 Values Calculated Using GTI_FRET4 Substrate: 24 % Normal
Sample UAMS041609, incubation 75 Minutes
  % Normal ADAMTS13 Values Calculated Using GTI_FRET4 Substrate: 26 % Normal
Sample UAMS041609, incubation 90 Minutes
  % Normal ADAMTS13 Values Calculated Using GTI_FRET4 Substrate: 27 % Normal
Sample VF, 15 min
  Increase in Fluorescence Values (X minute - 0 minute Reading): 1,292 RFU
Sample VF, 30 min
  Increase in Fluorescence Values (X minute - 0 minute Reading): 2,436 RFU
Sample VF, 45 min
  Increase in Fluorescence Values (X minute - 0 minute Reading): 3,552 RFU
Sample VF, 60 min
  Increase in Fluorescence Values (X minute - 0 minute Reading): 4,690 RFU
Sample VF, 75 min
  Increase in Fluorescence Values (X minute - 0 minute Reading): 5,784 RFU
Sample VF, 90 min
  Increase in Fluorescence Values (X minute - 0 minute Reading): 7,260 RFU
Sample VF, incubation 15 Minutes
  % Normal ADAMTS13 Values Calculated Using GTI_FRET4 Substrate: 5 % Normal
Sample VF, incubation 30 Minutes
  % Normal ADAMTS13 Values Calculated Using GTI_FRET4 Substrate: 6 % Normal
Sample VF, incubation 45 Minutes
  % Normal ADAMTS13 Values Calculated Using GTI_FRET4 Substrate: 6 % Normal
Sample VF, incubation 60 Minutes
  % Normal ADAMTS13 Values Calculated Using GTI_FRET4 Substrate: 6 % Normal
Sample VF, incubation 75 Minutes
  % Normal ADAMTS13 Values Calculated Using GTI_FRET4 Substrate: 5 % Normal
Sample VF, incubation 90 Minutes
  % Normal ADAMTS13 Values Calculated Using GTI_FRET4 Substrate: 6 % Normal
